Test system: T1, N[C@H](CO)C(=O)O
T1 construct: human recombinant DAAO enzyme
Test: Amplex Red H2O2 detection; Michaelis constant (in-house data)
Format: biochemical, Homo sapiens
Settings: FAD

Chain of D-amino acid oxidase (DAAO) (Homo sapiens) (chain, as listed by the source): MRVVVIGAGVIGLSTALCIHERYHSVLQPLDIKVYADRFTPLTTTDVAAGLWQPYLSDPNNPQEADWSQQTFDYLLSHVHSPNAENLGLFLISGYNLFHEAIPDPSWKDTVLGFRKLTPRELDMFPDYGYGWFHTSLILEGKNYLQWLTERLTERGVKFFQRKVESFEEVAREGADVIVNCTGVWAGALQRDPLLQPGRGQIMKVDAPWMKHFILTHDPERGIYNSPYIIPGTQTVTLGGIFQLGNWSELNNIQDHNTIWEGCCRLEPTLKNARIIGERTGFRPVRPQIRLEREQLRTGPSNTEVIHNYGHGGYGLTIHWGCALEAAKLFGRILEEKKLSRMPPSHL

Substance: D-amino acid oxidase (DAAO) (Homo sapiens)
- Km: 1200 µM

Reference: PMC10471729, “Luvadaxistat: A Novel Potent and Selective D-Amino Acid Oxidase Inhibitor Improves Cognitive and Social Deficits in Rodent Models for Schizophrenia” (Neurochemical Research, 2023)
